Source: patent US20250000991A1 (Eli Lilly, published 2025)
Positions count from the first letter of the chain named.

T1: human nectin-4 on cells (human, UniProt Q96NY8 32-510)
T1 construct: also called Nectin-4 receptor
T1 sequence: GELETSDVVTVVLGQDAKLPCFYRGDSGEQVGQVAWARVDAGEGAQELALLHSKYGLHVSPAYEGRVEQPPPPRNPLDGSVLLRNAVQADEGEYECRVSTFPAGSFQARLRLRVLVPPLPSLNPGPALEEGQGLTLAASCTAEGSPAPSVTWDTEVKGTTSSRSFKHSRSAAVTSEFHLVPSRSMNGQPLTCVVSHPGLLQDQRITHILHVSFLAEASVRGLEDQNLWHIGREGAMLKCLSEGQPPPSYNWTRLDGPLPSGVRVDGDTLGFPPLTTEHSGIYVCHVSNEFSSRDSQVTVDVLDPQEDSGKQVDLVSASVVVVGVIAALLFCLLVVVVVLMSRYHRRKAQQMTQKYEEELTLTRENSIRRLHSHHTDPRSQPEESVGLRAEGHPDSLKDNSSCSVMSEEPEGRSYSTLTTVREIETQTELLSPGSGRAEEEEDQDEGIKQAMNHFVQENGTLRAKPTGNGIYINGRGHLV

T2: recombinant HIS-tagged human nectin-4 (Acro Biosystems Cat. No. NE4-H52H3) (human, UniProt Q96NY8 32-349)
T2 construct: Bought protein; not shown: HIS tag
T2 sequence: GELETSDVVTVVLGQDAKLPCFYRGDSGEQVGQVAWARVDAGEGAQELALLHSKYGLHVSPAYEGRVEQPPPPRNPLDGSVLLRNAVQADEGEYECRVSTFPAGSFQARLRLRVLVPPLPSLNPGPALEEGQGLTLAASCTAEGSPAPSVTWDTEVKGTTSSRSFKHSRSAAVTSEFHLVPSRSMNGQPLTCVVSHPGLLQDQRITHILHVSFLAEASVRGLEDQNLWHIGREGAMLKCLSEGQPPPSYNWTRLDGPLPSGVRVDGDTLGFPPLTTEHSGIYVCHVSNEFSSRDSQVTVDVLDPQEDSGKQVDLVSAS

T3: recombinant HIS-tagged rat nectin-4 (R&D Systems Cat. No. 9997-N4-050) (rat, UniProt D3ZET1 31-348)
T3 construct: Bought protein; HIS tag not described
T3 sequence: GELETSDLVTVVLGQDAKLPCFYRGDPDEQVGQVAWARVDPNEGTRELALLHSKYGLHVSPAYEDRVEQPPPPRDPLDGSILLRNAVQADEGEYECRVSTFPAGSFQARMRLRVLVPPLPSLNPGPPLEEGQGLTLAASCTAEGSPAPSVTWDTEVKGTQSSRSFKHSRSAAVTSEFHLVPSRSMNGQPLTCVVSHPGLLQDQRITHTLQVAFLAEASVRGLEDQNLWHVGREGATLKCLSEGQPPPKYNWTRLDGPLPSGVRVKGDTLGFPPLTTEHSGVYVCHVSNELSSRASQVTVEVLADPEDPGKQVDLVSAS

T4: recombinant HIS-tagged cyno nectin-4 (Acro Biosystems Cat. No. NE4-C52H4) (cyno, UniProt A0A2K5WES1 32-349)
T4 construct: Bought protein; HIS tag not described
T4 sequence: T2 sequence with V39A, I230V

T5: human Nectin-4-eGFP on T24 cells (clone 3) (human, UniProt Q96NY8 32-510)
T5 sequence: T1 sequence

B1: Ab2 (antibody, human IgG1, kappa, L234A L235A, V domains shown)
VH: EVQLVESGGGLVQPGGSLRLSCAASGFTFSSYDMHWVRQATGKGLEWVSAIGTVGDTYYPGSVKGRFTISRENAKNSLYLQMNSLRAGDTAVYYCAREWNGMDVWGQGTTVTVSS
VL: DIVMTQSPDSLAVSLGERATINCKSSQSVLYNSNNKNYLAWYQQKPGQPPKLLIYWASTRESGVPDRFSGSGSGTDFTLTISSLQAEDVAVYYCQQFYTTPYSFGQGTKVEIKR
notes: Unconjugated antibody; also called Antibody 2; nectin-4 antibody Ab2
B2: enfortumab (antibody, V domains shown)
VH: EVQLVESGGGLVQPGGSLRLSCAASGFTFSSYNMNWVRQAPGKGLEWVSYISSSSSTIYYADSVKGRFTISRDNAKNSLSLQMNSLRDEDTAVYYCARAYYYGMDVWGQGTTVTVSS
VL: DIQMTQSPSSVSASVGDRVTITCRASQGISGWLAWYQQKPGKAPKFLIYAASTLQSGVPSRFSGSGSGTDFTLTISSLQPEDFATYYCQQANSFPPTFGGGTKVEIKR
B3: Ab2 ADC (Ab2 conjugated as in Formula XI, DAR of 8) (antibody, human IgG1, kappa, L234A L235A, V domains shown)
VH: B1 VH
VL: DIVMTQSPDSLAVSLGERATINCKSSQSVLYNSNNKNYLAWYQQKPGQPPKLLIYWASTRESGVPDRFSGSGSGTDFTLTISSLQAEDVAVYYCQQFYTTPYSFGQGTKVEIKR
modifications: camptothecin analog linker-payload of Formula XI on cysteine thiols after full reduction, DAR of 8 per antibody; positions not given
notes: Antibody-drug conjugate of Ab2; also called Ab2 (ADC column)
B4: Ab5 ADC (Ab5 conjugated as in Formula XI, DAR of 8) (antibody, human IgG1, kappa, L234A L235A, V domains shown)
VH: QVQLVQSGAEVKKPGASVKVSCKASGYTFTSYYVHWVRQAPGQGLEWMGIINPSIISTSYAQKFQARVTMTRDTSTSTVYMELSSLRSEDTAVYYCARGLNFDAFDIWGQGTLVTVSS
VL: DIQLTQSPSFLSASVGDRVTITCRASQGISSYLAWYQQKPGKAPKLLIYAASTLQSGVPSRFSGSGSGTEFTLTISSLQPEDFATYYCQQLNNYPFTFGQGTKVEIKR
modifications: camptothecin analog linker-payload of Formula XI on cysteine thiols after full reduction, DAR of 8 per antibody; positions not given
notes: Antibody-drug conjugate of Ab5; also called Ab5 (ADC column)
B5: Ab8 ADC (Ab8 conjugated as in Formula XI, DAR of 8) (antibody, human IgG1, lambda, L234A L235A, V domains shown)
VH: QVQLVQSGAEVKKPGASVKVSCKASGYTFTSYYIHWVRQAPGQGLEWMGIINPISGRTSSAQKFQGRVTMTRDTSTSTVYMELSSLRSEDTAVYYCAKEGVGGELLRAFDIWGQGTLVTVSS
VL: QSVLTQPPSVSEAPRQRVTISCSGSSSNIGNNAVNWYQQLPGKAPKLLIYYDDLLPSGVSDRFSGSKSGTSASLAISGLQSEDEADYYCAAWDDSLNGFVFGGGTKLTVLG
modifications: camptothecin analog linker-payload of Formula XI on cysteine thiols after full reduction, DAR of 8 per antibody; positions not given
notes: Antibody-drug conjugate of Ab8; also called Ab8 (ADC column)
B6: Ab1a ADC (Ab1a conjugated as in Formula XI, DAR of 8) (antibody, human IgG1, kappa, L234A L235A, V domains shown)
VH: QVQLVQSGAQVKKPGASVKVSCKASGYTFTGYYIHWVRQAPGQGLEWMGWINPNSGGTNYAQKFQGRVTMTRDTSISTAYMELSRLRSDDTAVYFCAREDWDFDYWGQGTLVTVSS
VL: EIVLTQSPGTLSLSPGERATLSCRTSQSVSSSYLAWYQQKPGQAPRLLIYGASNRATDIPDRFSGSGSGTDFTLTINRLEPEDFAVYYCQQYGSSPITFGQGTRLEIKR
modifications: camptothecin analog linker-payload of Formula XI on cysteine thiols after full reduction, DAR of 8 per antibody; positions not given
notes: Antibody-drug conjugate of Ab1a; also called Ab1a (ADC column)
B7: Ab7 ADC (Ab7 conjugated as in Formula XI, DAR of 8) (antibody, human IgG1, lambda, L234A L235A, V domains shown)
VH: QVQLVQSGAEVKKPGASVKVSCKASGYTFTNYYMHWVRQAPGQGLEWMGIINPSSGSASYAQKFQGRVTMTRDTSTSTVYMELSSLRSEDTAVYYCAREGVGRDILQAFDIWGQGTLVTVSS
VL: B5 VL with F99H
modifications: camptothecin analog linker-payload of Formula XI on cysteine thiols after full reduction, DAR of 8 per antibody; positions not given
notes: Antibody-drug conjugate of Ab7; also called Ab7 (ADC column)

Each binder was assayed against T1, human nectin-4 on cells (assay: flow cytometry, SUM190PT cells (high endogenous nectin-4)).

Binder	% of enfortumab (Average Max MFI)	Average Max MFI	EC50
B1	87.2%	920000 MFI	0.19 nM
B2	100%	1.1e+06 MFI	0.11 nM

The binders below were run against T1, human nectin-4 on cells (assay: flow cytometry, differentiated normal human epidermal keratinocytes (HEKα)).

Binder	EC50
B1	0.05 nM
B3	0.05 nM
B2	0.06 nM

Each binder was assayed against T2, recombinant HIS-tagged human nectin-4 … (assay: SPR Biacore 8K+, ADC captured via anti-human Fc, nectin-4 analyte, 37 C;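 further: Nectin-4 injected over captured ADC at 0 to 600 nM for 2 min association, then 10 min dissociation, with a reference flow cell lacking ADC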).

Binder	Kd	koff	kon
B4	3.94 nM	0.00346 s⁻¹	878000 M⁻¹ s⁻¹
B3	21 nM	0.0214 s⁻¹	1.02e+06 M⁻¹ s⁻¹
B5	48.7 nM	0.0338 s⁻¹	694000 M⁻¹ s⁻¹

Each binder was assayed against T3, recombinant HIS-tagged rat nectin-4 … in the same assay as above.

Binder	Kd	koff	kon
B4	31.3 nM	0.0199 s⁻¹	636000 M⁻¹ s⁻¹
B3	108 nM	0.0753 s⁻¹	695000 M⁻¹ s⁻¹
B6	180 nM	0.0453 s⁻¹	252000 M⁻¹ s⁻¹
B5	34.4 nM	0.0165 s⁻¹	482000 M⁻¹ s⁻¹
B7	73.1 nM	0.0296 s⁻¹	404000 M⁻¹ s⁻¹

These binders were tested against T4, recombinant HIS-tagged cyno nectin-4 … in the same assay as above.

Binder	Kd	koff	kon
B4	3.1 nM	0.0033 s⁻¹	1.06e+06 M⁻¹ s⁻¹
B3	19.8 nM	0.02 s⁻¹	1.01e+06 M⁻¹ s⁻¹
B6	83.9 nM	0.026 s⁻¹	310000 M⁻¹ s⁻¹
B5	42.1 nM	0.0524 s⁻¹	1.25e+06 M⁻¹ s⁻¹
B7	39.2 nM	0.0464 s⁻¹	1.18e+06 M⁻¹ s⁻¹

The binders below were run against T2, recombinant HIS-tagged human nectin-4 … (assay: SPR Biacore 8K+, ADC captured via anti-human Fc, nectin-4 analyte, 37 C; replicate 2 of 2).

Binder	Kd	koff	kon
B6	72.5 nM	0.0308 s⁻¹	424000 M⁻¹ s⁻¹
B7	37.6 nM	0.0212 s⁻¹	564000 M⁻¹ s⁻¹

Each binder was assayed against T5, human Nectin-4-eGFP on T24 cells (clone …) (assay: cell-based or functional assay).

Binder	% activity (max GFP signal loss compared to enfortumab mAb (100%))	EC50 (nM) of nectin-4-eGFP signal loss
B4	112%	2.8 nM
B1	113%	1.43 nM
B3	132%	1.96 nM
B2	97%	2.13 nM
B6	150%	2.3 nM
B5	125%	2.48 nM
B7	126%	2.61 nM

The binders below were run against T2, recombinant HIS-tagged human nectin-4 … (assay: SPR Biacore 8K+, ADC captured via anti-human Fc, nectin-4 analyte, 37 C; replicate 1 of 2).

Binder	Kd	koff	kon
B6	142 nM	0.0402 s⁻¹	283000 M⁻¹ s⁻¹
B7	41.2 nM	0.0243 s⁻¹	591000 M⁻¹ s⁻¹

What follows are binders tested against T1, human nectin-4 on cells (assay: cell-based or functional assay).

Binder	Cytotoxicity IC50, NCI H1781 cells	Cytotoxicity IC50, T24 Nectin-4 clone 108 cells
B4	0.0657 nM	0.0994 nM
B3	0.0473 nM	0.07 nM
B6	0.0981 nM	0.0729 nM
B5	0.0572 nM	0.088 nM
B7	0.0543 nM	0.0801 nM

The binders below were run against T1, human nectin-4 on cells (assay: flow cytometry, NCI-H1781 cells (low endogenous nectin-4)).

Binder	% of enfortumab (Average Max MFI)	Average Max MFI	EC50
B1	95.7%	87000 MFI	0.06 nM
B2	100%	91000 MFI	0.05 nM
